The data set in a line: yeast display, Sf9 membrane polyspecificity reagent, FACS + sequencing; frameworks hold sequencing errors. Put shortly:
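Sorting gates, low and high (top ~1%), were placed on anti-HA fluorescence to track expression and on streptavidin fluorescence to track reagent binding. A clone's polyreactivity label is taken from the gate it came out of. The reagent was 10% biotinylated, detergent-solubilized Sf9 membrane, applied for 1 hour at 4 °C to galactose-induced yeast display cells.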
As for “QVQLVESGGGLVQAGGSLRLSCAASGRIFAYYAMGWYRQAPGKERELVATITRGGNTNYADSVKGRFTISRDNAKNTVYLQMNSLKPEDTAVYYCNRRYSRWGIYDYWGQGTQVTVSS”, the “polyreactivity (PSR sort gate)” value was “high polyreactivity”.

As to “QVQLVESGGGLVQAGGSLRLSCAASGRIFAYYAMGWYRQAPGKEREVVAAISRSGVSTYYADSVKGRFTISRDNAKNTVYLQMNSLKPEDTAVYYCAARWRYGFTSGDYWGQGTQVNVSS”, the “polyreactivity (PSR sort gate)” value was “low polyreactivity”. For “QVQLVESGGGLVQAGGSLRLSCAASGRIFAYYAMGWYRQAPGQERELVATITGGGDRTYYADSVKGRFTISRDNAKNTLYLQMNSLKPEDTAVYYCNARVWYYSPYYYWGQGTQVTVSS”, the “polyreactivity (PSR sort gate)” value is listed as “low polyreactivity”. As for “QVQLVESGGGLVQAGGSLRLSCAASGRIFAYYTMGWYRQAPGKERELVAAISGSSGRTYYADSVKGRFTISRDNAKNTVYLQMNSLKPEDTAVYYCAARGFSFWRYYYWGQGTQVTVSS”, the “polyreactivity (PSR sort gate)” value was “high polyreactivity”. Consider “QVQLVESGGGLVQAGGSLRLSCAASGRIFDDNAKGCYRQPPGKERELLASLTVSTGSTYYADSVKGRFTISRDTAKNTVYLQMNSLKPEDTAVYYCAAPYITPYGTYVFSSDYWGQGTQVTVSS”, for which the “polyreactivity (PSR sort gate)” value was “low polyreactivity”. As for “QVQLVESGGGLVQAGGSLRLSCAASGRIFDDYAMGWYRQAPGKEREFVAAISRSGASTYYADSVKGRFTISRDNAKNTVYLQMNSLKPEDTAVYYCAARAGANYRMDYWGQGTQVTVSS”, the “polyreactivity (PSR sort gate)” value was “high polyreactivity”. In the case of “QVQLVESGGGLVQAGGSLRLSCAASGRIFDDYGMGWYRQAQGKESELVAGISFIAGSTYYADSVKGRFTISRDNAKNTVYLQMNSLKPEDTAVYYCAVELWYEYYYWGQGTQVTVSS”, the “polyreactivity (PSR sort gate)” value is listed as “high polyreactivity”. With “QVQLVESGGGLVQAGGSLRLSCAASGRIFDGNAMGWDRPAPGKERELVADISVTGGSTYYADSVKGRFTISRDNAKNTVYLQMNSLKPEDTAVYYCNAYPFSRSVQLRDYWGQGTQVTVSS”, the “polyreactivity (PSR sort gate)” value is “low polyreactivity”.

For “QVQLVESGGGLVQAGGSLRLSCAASGRIFDGNAMGWYRQAPGKERELVATITRGGRTNYADSVKGRFTISRDNAKNTVYLQMNSLKPEDTAVYYCAAEYTYYTYNLNYWGQGTQVTVSS”, the “polyreactivity (PSR sort gate)” value is “low polyreactivity”. Regarding “QVQLVESGGGLVQAGGSLRLSCAASGRIFDGNTMGWYRQAPGKERELVAAITYSGGRTSYADSVKGRFTISRDNAKNTVYLQMNSLKPEDTAVYYCNARVVTGSWYEGYYWGQGTQVTVSS”, the “polyreactivity (PSR sort gate)” value is “low polyreactivity”. For the sequence “QVQLVESGGGLVQAGGSLRLSCAASGRIFDGYAMGWYRQAPGTERELVAAITDSGGSTYYADSVKGRFTISRDNAKNTVYLQMNSLKPEDTAVYYCAAEEIDYTDVTSGYEYWGQGTQVTVSS”, the “polyreactivity (PSR sort gate)” value is on record as “high polyreactivity”. Take “QVQLVESGGGLVQAGGSLRLSCAASGRIFDHYAMGWYRQAPGKERELVAAITRSGGITYYADSVKGRFTISRDNAKNTVYLQMNSLKPEDTAVYYCAALSYRYTDKFDYWGQGTQVTVSS”: the “polyreactivity (PSR sort gate)” value is “low polyreactivity”. For the sequence “QVQLVESGGGLVQAGGSLRLSCAASGRIFDINAMGWYRQAPGKEWELVAAISRGGSTYYADSVKGRFTISLDNAKNTVYLNMNSLKPEDTAVYYCNIYRYRGSTVFDGYDYWGHGTQVTVSS”, the “polyreactivity (PSR sort gate)” value is “high polyreactivity”.

“QVQLVESGGGLVQAGGSLRLSCAASGRIFDIYAMGWYRQAPGKERELVAAITTRGGSTYYADSVKGRFTISRDNAKNNVYLQMNSLKPEDTAVYYCAAAYSEDYRVIFYYWGQGTQVTVSS”: the “polyreactivity (PSR sort gate)” value is “low polyreactivity”.

In the case of “QVQLVESGGGLVQAGGSLRLSCAASGRIFDIYAMGWYRQAPGKERELVAGITSVGSTNYADSVKGRFTISRDNAKNTVYLQMNSLKPEDTAVYYCAADTSVHSEVDYWGQGTQVTVSS”, the “polyreactivity (PSR sort gate)” value is given as “low polyreactivity”. “QVQLVESGGGLVQAGGSLRLSCAASGRIFDIYAMGWYRQAPGKERELVAGITSVGSTNYADSVKGRFTISRDNEKNTVYLQMNSLKPEDTAVYYCAAKAYFSTSPYHREHDSWGQGTQVTVSS”: the “polyreactivity (PSR sort gate)” value was “low polyreactivity”. The same measure for “QVQLVESGGGLVQAGGSLRLSCAASGRIFDIYGMGWYRQAPGKERELLAAITWRGGSTYYADSVKGRFTISRDNAKNTVYLQMKSLNPEDTAVYYCNARKRGARFILGYDYWGQGTQVTVSS”: “low polyreactivity”.

Consider “QVQLVESGGGLVQAGGSLRLSCAASGRIFDIYTMGWYRQAPGKERELVASITKRGGSTYYADSVKGRFTISRDNAKNTVYLQMKSLKPEDTAVYFCNVAGKQKPYYVTTRLDYWGQGTQVTVSS”, for which the “polyreactivity (PSR sort gate)” value was “high polyreactivity”.

Regarding “QVQLVESGGGLVQAGGSLRLSCAASGRIFDLNAMGWYRQAPGKERELVAVISWSGGIKYYADSVKGRFTISRDNAKNTVYLQMNSLKPEDTAVYYCNADTVFDPYYEFDYWGLGTQVTVSS”, the “polyreactivity (PSR sort gate)” value was “low polyreactivity”.

“QVQLVESGGGLVQAGGSLRLSCAASGRIFDLYAMGWYRQAPGKERELVAAITWRGGSTYYADSVKGRFTISRDNAKNTVYLQMNSLKPEDTAVYYCAARSYYISPWRFDYWGQGTQVTVSS”: the “polyreactivity (PSR sort gate)” value is “high polyreactivity”. Take “QVQLVESGGGLVQAGGSLRLSCAASGRIFDPYAMGWYRQAPGKERELVASNSWSGGRTYYADSVKGRFTISRDNAKNTVYLQMNSLKPEDTAVYYCAKVRAYTRLGLTVSMDYWGQGTQVTVSS”: the “polyreactivity (PSR sort gate)” value is listed as “high polyreactivity”.

These data come from the nanobody polyreactivity screen of Harvey et al. (2022).
